The target of assay [1] is native Escherichia coli L-asparaginase II (Kidrolase) (E. coli) (UniProt P00805). The experiment in a line: native gel or EMSA. (In general: Mobility shift assays separate free from complexed probe on a gel.)
The target is the same in assay [2].
The target is the same in assay [3]. The experiment in a line: SEC.
The target is the same in assay [4]. The source holds these as a separate data set.
Assay [5] has the same target. The experiment in a line: native gel or EMSA. This is another data set of the same source.
Assay [6] addresses T1, N21-EcAII (E. coli K12), P00805.
T1 chain: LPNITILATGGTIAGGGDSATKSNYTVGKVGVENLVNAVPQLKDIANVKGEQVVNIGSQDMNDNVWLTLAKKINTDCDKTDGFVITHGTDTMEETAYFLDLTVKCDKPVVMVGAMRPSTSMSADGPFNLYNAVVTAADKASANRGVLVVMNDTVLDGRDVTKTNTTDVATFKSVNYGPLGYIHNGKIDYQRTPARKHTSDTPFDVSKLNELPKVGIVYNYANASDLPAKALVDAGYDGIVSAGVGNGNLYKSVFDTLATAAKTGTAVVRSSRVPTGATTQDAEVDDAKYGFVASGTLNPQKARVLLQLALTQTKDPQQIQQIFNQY
The experiment in a line: SEC. The conditions noted are these: remark: other sources report otherwise.

The target is the same in assay [7]. The experiment in a line: SEC. Particulars: remark: other sources report otherwise.
Assay [8] has as its target T2, C8-EcAII (E. coli K12), P00805.
T2 chain: T1 chain
The experiment in a line: SEC. The conditions noted are these: remark: other sources report otherwise.

Assay [9] has the same target. The experiment in a line: SEC. Particulars: remark: other sources report otherwise.
The target is the same in assay [10]. The experiment in a line: native gel or EMSA. Particulars: remark: other sources report otherwise.
The target of assay [11] is T3, N26-EcAII (E. coli K12), P00805.
T3 chain: T1 chain
The experiment in a line: SEC. Particulars: remark: other sources report otherwise.

The target is the same in assay [12]. The experiment in a line: SEC. The conditions noted are these: remark: other sources report otherwise.
Assay [13] has the same target. The experiment in a line: native gel or EMSA. Particulars: remark: other sources report otherwise.

“And” between values parts separate entries of the source, which are not always exact repeats. Equal values may be shown once.

For orientation: stoichiometry N means the number of molecules, sites or subunits per partner or assembly.

For “native Escherichia coli L-asparaginase II (Kidrolase) (from UniProt P00805 23-348) (enzyme)”, the stoichiometry N is 4 and 8 and 12 in assay [1]; 4 and 8 and 12 in [3]; 8 and 12 and 4 in assay [5]. In [2], this molecule returned a specific activity of EcAII immobilized on gold chips (GDH-coupled assay) of 310 U mg^–1. For the same molecule, in [4], the specific activity in solution (GDH-coupled assay) amounted to 118 U mg^–1.

B1: N21-EcAII, P00805 23-348 (enzyme)
chain: T1 chain
With B1, the stoichiometry N was 8 and 12 and 4 in assay [6]; 4 in assay [7].

B2: C8-EcAII, P00805 23-348 (enzyme)
chain: T1 chain
Regarding B2, the stoichiometry N in assay [8] was 4; in assay [9] it was 4; in [10] it was 4 and 8. This molecule also gave a percent dissociated into monomer in assay [10] of 50%.

B3: N26-EcAII, P00805 23-348 (enzyme)
chain: T1 chain
With B3, the stoichiometry N in assay [11], in assay [12] and in assay [13] was 4 in each case.

Source of the values: paper PMC6044767.
